# Patent US20060177452A1 (BURNHAM INSTITUTE FOR MEDICAL RESEARCH, published 2006)
# No end group written: not given here.
# T1: EphB2 ectodomain fused to human Fc, carboxy-terminal hexahistidine tag (human)
# T1 chain: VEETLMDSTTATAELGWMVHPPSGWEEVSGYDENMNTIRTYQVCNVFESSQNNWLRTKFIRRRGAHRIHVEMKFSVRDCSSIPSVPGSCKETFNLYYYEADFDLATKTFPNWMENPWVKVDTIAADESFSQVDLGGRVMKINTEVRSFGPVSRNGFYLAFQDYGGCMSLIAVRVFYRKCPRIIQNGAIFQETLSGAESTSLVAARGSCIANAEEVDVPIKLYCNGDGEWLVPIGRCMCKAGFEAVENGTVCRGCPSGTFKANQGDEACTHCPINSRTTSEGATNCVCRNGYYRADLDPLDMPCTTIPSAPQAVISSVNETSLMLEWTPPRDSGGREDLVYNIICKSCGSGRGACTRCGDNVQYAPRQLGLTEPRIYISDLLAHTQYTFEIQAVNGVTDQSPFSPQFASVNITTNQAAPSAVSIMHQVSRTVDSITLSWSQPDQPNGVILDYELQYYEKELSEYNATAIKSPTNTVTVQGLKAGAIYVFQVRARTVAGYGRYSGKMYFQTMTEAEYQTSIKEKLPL
# T2: EphB4 ectodomain fused to human Fc, carboxy-terminal hexahistidine tag (human)
# T2 chain: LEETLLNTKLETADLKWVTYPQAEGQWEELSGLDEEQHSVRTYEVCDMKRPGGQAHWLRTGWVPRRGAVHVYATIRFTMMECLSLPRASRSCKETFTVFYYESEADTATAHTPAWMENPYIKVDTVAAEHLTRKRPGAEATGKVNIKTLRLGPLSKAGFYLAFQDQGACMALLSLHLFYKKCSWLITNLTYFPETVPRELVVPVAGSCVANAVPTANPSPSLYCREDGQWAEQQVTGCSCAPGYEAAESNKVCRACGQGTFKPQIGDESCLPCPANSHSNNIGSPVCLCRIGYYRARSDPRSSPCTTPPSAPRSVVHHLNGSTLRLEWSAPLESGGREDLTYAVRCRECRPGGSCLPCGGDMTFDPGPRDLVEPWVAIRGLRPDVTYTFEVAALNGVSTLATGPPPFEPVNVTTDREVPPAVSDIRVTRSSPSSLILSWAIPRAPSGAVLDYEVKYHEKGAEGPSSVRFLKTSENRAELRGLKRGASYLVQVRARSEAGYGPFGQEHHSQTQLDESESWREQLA
# T3: endogenous EphB4 of MCF7 human breast cancer cells (human, UniProt P54760 16-987)
# T3 construct: whole, on cells; In pull-downs it stood in cell lysates; also called endogenous EphB4 (MCF-7)
# T3 sequence (looked up): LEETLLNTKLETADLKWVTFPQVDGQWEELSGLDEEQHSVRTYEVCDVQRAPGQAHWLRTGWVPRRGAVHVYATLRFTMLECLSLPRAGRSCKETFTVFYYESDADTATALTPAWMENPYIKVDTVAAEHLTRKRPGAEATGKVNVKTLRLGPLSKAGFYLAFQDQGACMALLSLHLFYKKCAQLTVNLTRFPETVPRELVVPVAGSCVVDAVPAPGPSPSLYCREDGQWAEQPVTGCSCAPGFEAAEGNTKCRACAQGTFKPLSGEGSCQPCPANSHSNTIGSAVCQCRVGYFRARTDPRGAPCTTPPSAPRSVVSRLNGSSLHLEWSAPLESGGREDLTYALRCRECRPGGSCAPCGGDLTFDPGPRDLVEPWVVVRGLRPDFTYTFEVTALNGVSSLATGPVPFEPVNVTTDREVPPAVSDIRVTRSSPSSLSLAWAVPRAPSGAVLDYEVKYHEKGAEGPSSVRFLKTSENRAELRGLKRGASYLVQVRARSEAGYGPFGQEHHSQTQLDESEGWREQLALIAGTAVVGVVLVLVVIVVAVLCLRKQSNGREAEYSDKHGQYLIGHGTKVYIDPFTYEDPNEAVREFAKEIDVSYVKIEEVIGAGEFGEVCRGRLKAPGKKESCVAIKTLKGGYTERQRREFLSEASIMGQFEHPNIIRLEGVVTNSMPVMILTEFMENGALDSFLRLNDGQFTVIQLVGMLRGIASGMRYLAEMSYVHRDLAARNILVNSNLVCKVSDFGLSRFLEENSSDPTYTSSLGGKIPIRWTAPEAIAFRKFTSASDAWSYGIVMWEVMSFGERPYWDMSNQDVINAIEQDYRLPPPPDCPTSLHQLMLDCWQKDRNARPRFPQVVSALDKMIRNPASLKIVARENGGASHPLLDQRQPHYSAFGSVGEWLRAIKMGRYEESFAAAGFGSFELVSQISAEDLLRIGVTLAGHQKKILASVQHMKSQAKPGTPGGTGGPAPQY
# What was measured:
# [1] = target: EphB4 ectodomain fused to human Fc, carboxy-terminal hexahistidine tag (human); experiment: inhibition of ephrin-B2 AP binding to immobilized EphB4 ectodomain Fc
# [2] = target: EphB4 ectodomain fused to human Fc, carboxy-terminal hexahistidine tag (human); experiment: inhibition of ephrin-B2 AP binding to immobilized EphB4 ectodomain Fc (FIG. 6B)
# [3] = target: EphB1 ectodomain fused to human Fc, carboxy-terminal hexahistidine tag (human); experiment: inhibition of ephrin-B2 AP binding to immobilized EphB1 ectodomain Fc; biotinylated peptide
# [4] = target: T1, EphB2 ectodomain fused to human Fc, …; experiment: phage ELISA on immobilized EphB Fc
# [5] = target: T2, EphB4 ectodomain fused to human Fc, …; experiment: phage ELISA on immobilized EphB Fc
# [6] = target: T1, EphB2 ectodomain fused to human Fc, …; experiment: inhibition of ephrin-B2 AP binding to immobilized EphB2 ectodomain Fc; biotinylated peptide
# [7] = target: T2, EphB4 ectodomain fused to human Fc, …; experiment: inhibition of ephrin-B2 AP binding to immobilized EphB4 ectodomain Fc; biotinylated peptide
# [8] = target: T3, endogenous EphB4 of MCF7 human breast …; experiment: biotinylated TNYL and streptavidin quantum dots, fluorescence microscopy of MCF-7 cells
# [9] = target: T2, EphB4 ectodomain fused to human Fc, …; experiment: inhibition of ephrin-B2 AP binding to immobilized EphB4 ectodomain Fc (FIG. 6A)
# Chain of ephrin-B2 Fc (Fc fusion) (P52800 29-232): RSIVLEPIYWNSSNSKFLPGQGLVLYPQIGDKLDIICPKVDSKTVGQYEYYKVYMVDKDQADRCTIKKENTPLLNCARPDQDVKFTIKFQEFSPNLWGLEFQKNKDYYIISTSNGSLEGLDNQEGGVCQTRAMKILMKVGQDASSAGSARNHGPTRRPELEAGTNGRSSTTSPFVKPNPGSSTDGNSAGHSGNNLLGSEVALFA
molecule,measurement,setting,value
ephrin-B2 Fc (Fc fusion),IC50,[1],0.009 µM
same,IC50,[2],9 µM
"AHTFPYPHPKPHGSGS (C-terminal biotin: on the Lys side chain of a GSGSK linker, or N-biotinyl-ethylenediamine after GSGS (which one is not stated)) [AHTF peptide, synthetic, biotinylated]",IC50,[3],150 µM
LPHGPVAAWDA (coat-protein fusion not described),% Binding,[4],15%
same,% Binding,[5],100%
SGHQLLNKMPN (coat-protein fusion not described),% Binding,[5],100%
"WHWTIEPFAITSGSGS (C-terminal biotin: on the Lys side chain of a GSGSK linker, or N-biotinyl-ethylenediamine after GSGS (which one is not stated)) [WHWT peptide, synthetic, biotinylated]",IC50,[6],> 100 µM
"DHWRILPFSLSSGSGS (also: C-terminal biotin, via GSGSK Lys side chain or biotinyl-ethylenediamine, not settled) [DHWRI peptide, synthetic, biotinylated]",IC50,[6],> 100 µM
"SHWPISPYSLLSGSGS (also: C-terminal biotin, via GSGSK Lys side chain or biotinyl-ethylenediamine, not settled) [SHWPI peptide, synthetic, biotinylated]",IC50,[6],> 100 µM
"DALNDWLLFRPWGSGS (also: C-terminal biotin, via GSGSK Lys side chain or biotinyl-ethylenediamine, not settled) [DALN peptide, synthetic, biotinylated]",IC50,[7],> 100 µM
"DHNHNLYNPWRLGSGS (also: C-terminal biotin, via GSGSK Lys side chain or biotinyl-ethylenediamine, not settled) [DHNH peptide, synthetic, biotinylated]",IC50,[7],~200 µM
"TNYLFSPNGPIAGSGS (also: C-terminal biotin on linker (form not given here), also called biotinylated TNYL) [TNYL peptide, synthetic, biotinylated]",binding result,[8],binds
same,IC50,[7],~50 µM
"NPVIGPIQRAWTGSGS (also: C-terminal biotin on linker (form not given here)) [NPVI peptide, synthetic, biotinylated]",IC50,[7],> 500 µM
"TNYLFSPNGPIARAW [TNYL-RAW peptide, non-biotinylated]",IC50,[9],~0.015 µM
same,fold lower IC50 than non-biotinylated TNYL,[9],10000 fold
